Results: paper PMC11164899, “A novel inhibitory BAK antibody enables assessment of non-activated BAK in cancer cells” (Cell Death and Differentiation, 2024)

T1: hBAKΔN22ΔC25Δcys (Homo sapiens, Δcys (cysteine to serine; position C166 from memory, not given))
T1 construct: BAK, human, lacking the N-terminal 22 residues and the C-terminal 25 residues (transmembrane anchor); wild-type cysteine residues replaced with serine; also called BAKΔTM; source: E. coli BL21 (DE3), purified (glutathione resin, HRV-3C cleavage, SEC Superdex S75)
T1 chain: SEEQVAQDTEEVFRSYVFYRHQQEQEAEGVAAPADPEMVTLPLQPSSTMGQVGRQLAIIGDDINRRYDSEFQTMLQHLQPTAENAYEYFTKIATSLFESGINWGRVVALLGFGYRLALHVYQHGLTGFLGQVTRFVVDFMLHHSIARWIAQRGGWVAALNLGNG

T2: hBAKΔN22ΔC25Δcys M60G (Homo sapiens, M60G | Δcys (cysteine to serine; position C166 from memory, not given))
T2 construct: BAK, human, ΔN22ΔC25, wild-type cysteine residues replaced with serine, M60G; also called hBAK M60G; BAK M60G; source: E. coli BL21 (DE3), purified (glutathione resin, HRV-3C cleavage, SEC Superdex S75)
T2 chain: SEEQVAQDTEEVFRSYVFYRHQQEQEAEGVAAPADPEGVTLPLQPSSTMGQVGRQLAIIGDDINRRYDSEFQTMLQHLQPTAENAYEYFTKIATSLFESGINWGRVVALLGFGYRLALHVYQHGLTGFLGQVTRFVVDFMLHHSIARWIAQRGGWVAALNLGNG

T3: hBAKΔN22ΔC25Δcys M60W (Homo sapiens, M60W | Δcys (cysteine to serine; position C166 from memory, not given))
T3 construct: BAK, human, ΔN22ΔC25, wild-type cysteine residues replaced with serine, M60W; also called hBAK M60W; BAK M60W; source: E. coli BL21 (DE3), purified (glutathione resin, HRV-3C cleavage, SEC Superdex S75)
T3 chain: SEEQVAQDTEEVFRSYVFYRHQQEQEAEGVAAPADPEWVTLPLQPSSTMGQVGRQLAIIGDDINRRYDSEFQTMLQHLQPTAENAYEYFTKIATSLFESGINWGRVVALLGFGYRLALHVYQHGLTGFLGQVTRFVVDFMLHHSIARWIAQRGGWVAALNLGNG

T4: mBAKΔN20ΔC25Δcys (Mus musculus, stabilised)
T4 construct: BAK, mouse, lacking the N-terminal 20 and the C-terminal 25 residues; wild-type cysteine residues replaced with serine; also called mouse BAK; source: E. coli BL21 (DE3), purified (glutathione resin, HRV-3C cleavage, SEC Superdex S75)
T4 chain: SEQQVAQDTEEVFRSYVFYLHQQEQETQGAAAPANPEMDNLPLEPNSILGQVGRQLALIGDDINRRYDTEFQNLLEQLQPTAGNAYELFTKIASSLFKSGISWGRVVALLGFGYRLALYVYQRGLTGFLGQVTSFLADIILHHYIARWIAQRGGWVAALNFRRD


How the values were obtained:
[1] = target: T5, BAK, endogenous, in human leukaemia cell lines (Homo sapiens, UniProt Q16611); assay: native gel or EMSA; untreated membrane fractions incubated with antibody on ice for 30 min, solubilized with 1% digitonin, BN-PAGE, blot for BAK (gel-shift); settings: one partner purified
T5 construct: BAK, endogenous in blood cancer cell lines established from patients with ALL or AML; the methods list RS4;11, MOLM-13, KG-1, HL-60, OCI-AML3, MV4;11 and THP-1; source: endogenous, membrane fractions of human ALL and AML cell lines, solubilized in 1% digitonin
T5 sequence (Q16611 whole entry): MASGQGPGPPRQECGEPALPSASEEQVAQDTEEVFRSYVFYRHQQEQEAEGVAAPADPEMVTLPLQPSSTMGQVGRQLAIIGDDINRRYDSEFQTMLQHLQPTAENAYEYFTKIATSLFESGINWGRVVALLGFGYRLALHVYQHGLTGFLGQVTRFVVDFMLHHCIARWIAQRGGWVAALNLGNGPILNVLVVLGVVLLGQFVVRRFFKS

[2] = target: T6, human BAK, full-length, in mitochondria-enriched membrane fractions of bak−/−bax−/− MEFs (Homo sapiens, UniProt Q16611); assay: immunoprecipitation; membrane fractions of MEFs expressing hBAK, no cBID, solubilized in 1% digitonin, pre-cleared; Protein G Sepharose with 4 μg antibody, 4 °C, 1-2 h; blot for BAK; settings: one partner purified
T6 construct: BAK, human, full-length; also called hBAK; source: stably expressed in SV40-immortalized bak−/−bax−/− MEFs; permeabilized cells or membrane fractions, solubilized in 1% digitonin for IP and BN-PAGE

hBAKΔN22ΔC25Δcys [3] = target: T1, hBAKΔN22ΔC25Δcys; assay: SPR; 14G6 (about 150 RU) captured on a Protein A chip; BAK injected in a threefold dilution series (0.45-1000 nM), single-cycle kinetics; 25 °C, DPBS + 0.005% Tween-20; 1:1 binding model; mean ± SD of three experiments; settings: both partners purified
hBAKΔN22ΔC25Δcys M60G = target: T2, hBAKΔN22ΔC25Δcys M60G; assay: as above; settings: both partners purified
hBAKΔN22ΔC25Δcys M60W = target: T3, hBAKΔN22ΔC25Δcys M60W; assay: as above; settings: both partners purified
mBAKΔN20ΔC25Δcys = target: T4, mBAKΔN20ΔC25Δcys; assay: as above; settings: both partners purified
hBAKΔN22ΔC25Δcys [4] = target: T1, hBAKΔN22ΔC25Δcys; assay: SEC; 14G6 Fab mixed with a 1.5-fold excess of BAKΔTM; Superdex 200 Increase 10/300 in TBS; complex of ca 65 kDa; settings: both partners purified

binding result [1] | binding result [2] | Kd (hBAKΔN22ΔC25Δcys [3]) | koff (hBAKΔN22ΔC25Δcys [3]) | kon (hBAKΔN22ΔC25Δcys [3]) | Kd (hBAKΔN22ΔC25Δcys M60G) | koff (hBAKΔN22ΔC25Δcys M60G) | kon (hBAKΔN22ΔC25Δcys M60G) | Kd (hBAKΔN22ΔC25Δcys M60W) | koff (hBAKΔN22ΔC25Δcys M60W) | kon (hBAKΔN22ΔC25Δcys M60W) | Kd (mBAKΔN20ΔC25Δcys) | koff (mBAKΔN20ΔC25Δcys) | kon (mBAKΔN20ΔC25Δcys) | stoichiometry N (hBAKΔN22ΔC25Δcys [4]) | Binder
binds | binds | 10 nM | 7e-05 s⁻¹ | 6000 M⁻¹ s⁻¹ | 0.6 nM | 7e-05 s⁻¹ | 110000 M⁻¹ s⁻¹ | 9 nM | 5e-05 s⁻¹ | 4900 M⁻¹ s⁻¹ | 1140 nM | 0.00092 s⁻¹ | 810 M⁻¹ s⁻¹ |  | 14G6 antibody (antibody, V domains shown, mouse variable region, human constant region; The results call it a chimera with human constant regions; the immunoprecipitation methods call it '14G6 mouse monoclonal antibody'; Used as an AF488 conjugate for immunocytochemistry; also called clone 14G6; 14G6-AF488; source: mouse B cell cloning; recovered antibody variable regions expressed as chimeras containing human constant regions; copies: 2 …) VH: EVKLVESGAELVRPGTSVKVSCKASGYAFTNYLIEWVKQRPGQGLEWIGVINPGSGGTNYNEKFKGKATLTADKSSSTAYMQLTSLTSDDSAVYFCASPSLYGSFDYWGQGTTVTVSS VL: DIVMTQSHKFMSTSVGDRVSITCKASQDVGTAVAWYQQKPGQSPKLLIYWASTRHTGVPDRFTGSGSGTDFTLTISNVQSEDLADYFCQQYSSYRTFGGGTKLEIK
 |  |  |  |  |  |  |  |  |  |  |  |  |  | 1 | 14G6 Fab (Fab, V domains shown, Fab part of the heavy chain of m1; as the light chain of m1; also called Fab fragment of antibody 14G6; source: papain cleavage of the full-length antibody, purified by cation exchange (Mono S)) VH: EVKLVESGAELVRPGTSVKVSCKASGYAFTNYLIEWVKQRPGQGLEWIGVINPGSGGTNYNEKFKGKATLTADKSSSTAYMQLTSLTSDDSAVYFCASPSLYGSFDYWGQGTTVTVSS VL: DIVMTQSHKFMSTSVGDRVSITCKASQDVGTAVAWYQQKPGQSPKLLIYWASTRHTGVPDRFTGSGSGTDFTLTISNVQSEDLADYFCQQYSSYRTFGGGTKLEIK
